Laboratory results taken from publication PMC11092324 (Journal of Virology, 2024).

Assays:
Details in all cases: both partners purified
[1] = target: T1, GI.9 Vancouver virus-like particles (VP1 protein of the norovirus GI.9 Vancouver strain) (Norovirus Hu/GI.9/Vancouver730/2004/CAN, UniProt F2XMU3, strain); test: ELISA; sandwich ELISA: Strep-tagged CV-2F5 scFv (0.7 µM in PBS) held on Strep-Tactin-coated wells, VLPs added in twofold serial dilutions, 37°C 2 h, detected with rabbit anti-VLP antisera; data fit to the Michaelis-Menten equation, Km taken as Kd (affinity or avidity); concentration counted as VP1
T1 construct: also called Vancouver VLPs; GI.9 Vancouver VP1

[2] = target: T2, P domain of the VP1 protein from the GI.4 Chiba strain (P dimer) (norovirus GI.4 Chiba strain); test: crystal structure; Chiba P domain mixed with CV-2F5 scFv in a molar ratio of 1:1.2, complex isolated by size-exclusion chromatography, crystallized by sitting drop at 25°C in 35% Tacsimate pH 7.0
T2 construct: also called Chiba P domain protein; Chiba P dimers; source: E. coli cell-free protein synthesis system, purified (HisTrap, SUMO protease, HiTrapQ)
T2 chain: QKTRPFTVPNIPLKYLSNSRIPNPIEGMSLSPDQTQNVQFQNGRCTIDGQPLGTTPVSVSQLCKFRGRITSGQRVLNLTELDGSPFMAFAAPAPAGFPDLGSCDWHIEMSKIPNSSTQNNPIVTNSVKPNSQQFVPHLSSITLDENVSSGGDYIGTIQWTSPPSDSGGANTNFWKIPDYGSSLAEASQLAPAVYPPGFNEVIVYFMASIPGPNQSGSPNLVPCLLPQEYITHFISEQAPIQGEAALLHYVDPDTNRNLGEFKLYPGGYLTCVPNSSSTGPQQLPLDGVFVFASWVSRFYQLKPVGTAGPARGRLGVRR

[3] = target: T1, GI.9 Vancouver virus-like particles …; test: ELISA; sandwich ELISA: CV-1A1 Fv-clasp or scFv (0.7 µM in 50 mM carbonate buffer pH 9.6) coated on high-binding microplates, VLPs added in twofold serial dilutions, 37°C 2 h, detected with rabbit anti-VLP antisera; data fit to the Michaelis-Menten equation, Km taken as Kd (affinity or avidity); concentration counted as VP1

B1: Strep-tagged CV-2F5 scFv (scFv, V domains shown)
VH: EVQLVESGGGLVKPGGSLRLSCAASGFTFSSYNMNWVRQAPGKGLEWVSSISTSSRYIYYADSVKGRFTISRDNAKNSLYLQMNSLRAEDTAVYYCAREEGSVDYGMDVWGQGTTVTVSS
VL: not shown
notes: also called CV-2F5-Strep; source: E. coli harboring pETSUMO-CV-2F5-Strep, purified (TALON resin, SUMO protease on the resin); not shown: His tag, N-terminal, cleaved; SUMO, N-terminal, cleaved; Strep-tag, C-terminal, kept
Kd [1]: 0.0144 µM

B2: CV-2F5 scFv (N11-TEV construct, tag removed) (scFv, V domains shown)
VH: B1 VH
VL: not shown
notes: also called CV-2F5 antibody fragment; CV-2F5 scFv antibodies; source: E. coli cell-free protein synthesis system, purified (HisTrap, TEV protease, HiTrap SP)
stoichiometry N [2]: 1

B3: CV-1A1 Fv-clasp (other)
VH: EVQLVESGAEVKKPGASVKVSCKASGYTFTSLYMHWVRQAPGQGLEWMGMINPSGGGTWNAQKFQGRVTMTRDTSTSTVYMELRSLRSDDTAMYYCARDSDQYSQGLGYWGQGTLVTVCS
VL: QSALTQPASVSGSPGQSITISCTGTSSDVGGYNYVSWYQQHPGKAPKLMIYDVSKRPSGVSNRFSGSKSGNTASLTISGLQAKDEADYYCSSYTSSSTWVFGGGTKLTVL
notes: also called CV-1A1 Fv-clasp fragments; Fv-clasp version of CV-1A1; source: E. coli cell-free protein synthesis system (with DsbC and Skp), purified (HisTrap, TEV protease, HiTrap Q)
binding result [3]: no binding
